Assay results as given in patent US20230203156A1 (WILLIAM ROBERT ARATHOON LIVING TRUST DATED AUGUST 29 2016, published 2023).

B1: KPA08 (antibody, V domains shown)
VH: EVKVVESGGVLVRPGGSLKLSCAASGFTFSRYTMSWVRQTPEKRLEWVATISSGGGNTYYPDSVKGRFTVSRDNAMSSLYLQMSSLRSEDTALYYCARYGAGDAWFAYWGQGTLVTVSS
VL: DVLMTQTPVSLSVSLGDQASISCRSSQSIVHSTGNTYLEWYLQKPGQSPKLLIYKISNRFSGVPDRFSGSGSGTDFTLKISRVEAEDLGVYYCFQASHFPRTFGGGTKLEIK
B2: B1.188 (antibody, human IgG1, V domains shown)
VH: EVMLVESGGALVKPGGSLKLSCAASGFTFSNYAMSWVRQTPEKRLEWVATISSGGSYTYYPDSVKGRFTISRDNARNTLYLQMSSLRSEDTAMYYCARGYGNFAWFAYWGQGTLVTVSA
VL: DIQMTQSPLSLPVSLGDQASISCRSSQSIVHSTGNTYLEWYLQKPGQSPKLLIYKVSNRFSGVPDRFSGSGSGTDFTLKISRVEAEDLGVYYCFQGSHVPFTFGSGTKLEIK
B3: B1.89 (antibody, human IgG1, V domains shown)
VH: KVQLVESGGALVKPGGSLKLSCAASGFTFSNYAMSWVRQTPEKRLEWVATISSSGSYTYFPDSVKGRFTISRDNAKNTLYLQMSSLRSEDTALYYCARYGYDEAWFASWGQGTLVTVSA
VL: DVLMTQTPLSLPVSLGDQASISCRSSQTIVHSNGNTYLEWYLQKPGQSPKLLIYKVSKRFSGVPDRFSGSGSGTDFTLKISRVEAEDLGVYYCFQGSHFPRTFGGGTKLEIK
B4: B1.264 (antibody, human IgG1, V domains shown)
VH: EVKLVESGGALVKPGGSLKLSCAASGFTFSNYAMSWVRQTPEKRLEWVATISSGGSNTYYPDSVMGRFTISRDNAKNTLYLQMSSLRSEDTALYYCARYSNYGWFAYWGQGTLVTVSS
VL: DVVMTQTPLSLPVSLGDQASISCRSSQSIVHSNGNTYLEWYLQKPGQSPKLLIYKVSNRFSGVPDRFSGSGSGTDFTLKISRVEAEDLGVYYCFQGSLVPRTFGGGTKLEIK
B5: B1.263 (antibody, human IgG1, V domains shown)
VH: EVKLVESGGGLVKPGGSLKLSCAASGFTFSNYGMSWVRQTPEKRLEWVAAISSNGAYTYFPDTVKGRFTISRDNAKNTLYLQMNSLRSEDTALYYCTRRGWDTWFAYWGQGTLVTVSS
VL: DVVMTQTPLSLPVSLGDQASISCRSSQNIVHSTGNTYLEWYLQKPGQSPKLLIYKVSNRFSGVPDRFSGSGSGTDFTLKISRVEAEDLGVYYCFQGSHVPWTFGGGTKLEIK
B6: B1.198 (antibody, human IgG1, V domains shown)
VH: EVQLVESGGALVKPGGSLKLSCAASGFTFSNYAMSWVRQTPEKRLEWVATISSGGSYTYYPDSVKGRFTISRDNAKNTLYLQMSSLRSEDTALYYCAKYSNYGRFAYWGQGTLVTVSA
VL: DVVMTQTPLSLPVSLGDQASISCRSSQSIVDSNGNTYLEWYLQKPGQSPKLLIYKVSNRFFGVPDRFSGSGSGTDFTLKISRVEAEDLGVYYCFQGSHVPYTFGGGTKLEIK
B7: B1.217 (antibody, human IgG1, V domains shown)
VH: EVQLVESGGALVKPGGSLKLSCAASGFTFSNYAMSWVRQTPEKRLEWVATISSGGSYTYYPDSVKGRFTISRDNAKNTLYLQMSSLRSEDTALYYCTKYSNYGRFAYWGQGTLVTVST
VL: DVLMTQTPLSLPVSLGDQASISCRSSQSIVHSTGNTYLEWYLQKPGQSPKLLIYKVSNRFSGVPDRFSGSGSGTDFTLKISRVEAEDLGVYYCFQGSHIPYTFGGGTKLEIK
B8: B1.27 (antibody, human IgG1, V domains shown)
VH: EVKLVESGGGLVKPGGSLKLSCAASGFTFSSYTMSWVRQTPEKRLEWVATVSSGGGNTYYPDSVKGRFTISRDNAKNNLYLQMSSPRSEDTALYYCARYGNYGWFTYWGQGTLVTVSS
VL: DVVMTQTPLSLPVSLGDQASISCRSSQNIVHSTGNTYLDWYLQKPGQSPKLLIYKVSNRFSGVPDRFSGSGSGTDFTLKISRVEAEDLGVYFCFQGSHIPRTFGGGTKLEIK
B9: B1.178 (antibody, human IgG1, V domains shown)
VH: EAQLVESGGALVKPGGSLKLSCSASGFTFSNYAMSWVRQTPEKRLEWVATISSGGTNTYYPGSVKGRFTIARDNAKNTLYLLMSSLRSEDTALYFCARYSNLAWFASWGQGTLVTVSA
VL: DVVMTQTPLSLPVSLGDQASISCRSSQSIVHSNGNTYLEWYLQKPGQSPKFLISKVSNRFSGVPDRFSGSGSGTDFTLKISRVEAEDLGIYYCFQGSHVPYTFGGGTKLEIK
B10: B1.207 (antibody, human IgG1, V domains shown)
VH: GVQLVESGGALVKPGGSLKLSCAASGFTFSNYAMSWVRQTPEKRLEWVATISSGGSYTYYPDSVKGRFTISRDNAKTTLYLQMSGLRSEDTALYYCAKYSNYGRFASWGQGTLVTVST
VL: DVLMTQTPLSLPVSLGDQASISCRSSQSIVHSSGNTYLEWYLQKPGQSPRLLIYKVSNRFFGVPDRISGSGSGTDFTLRISRVEAEDLGVYYCFQGSHVPYTFGGGTKLEIK
B11: B1.226 (antibody, human IgG1, V domains shown)
VH: EVQLVESGGALVKPGGSLKLSCAASGFTFSNYAMSWVRQTPETRLEWVATISSGGSYTYYPDSVKGRFTISRDNAKNTLYLQMSSLRSEDTALYYCARYSNLAWFAYWGQGTLVTVSA
VL: DVVMTQTPLSLPVSLGDQASISCRSSQSIVHSNGNTYLDWYLQKPGQSPKFMIYKVSNRFSGVPDRFSGSGSGTDFTLKISRVEAEDLGVYYCFQGSHVPYTFGGGTKLEIK
B12: B1.201 (antibody, human IgG1, V domains shown)
VH: EVQLVESGGALMKPGGSLKFSCAASGFTFTNYAMSWVRQTPEKRLEWVATISSGGSNTYYSDSVKGRFTISRDNAKTTLYLQMSGLRSEDTALYYCAKFSNFGRFASWGQGTLVTVSA
VL: DVLMTQTPLSLPVSLGDQASISCRFSQSIVHSSGNTYLEWYLQKPGQSPRLLIYKVSNRFFGVPDRISGSGSGTDFTLRISRVEAEDLGVYYCFQGSHVPYTFGGGTKLEIK
B13: B1.225 (antibody, human IgG1, V domains shown)
VH: EVQLVESGGALVKPGGSLKLSCAASGFTFSNYGMSWVRQTPEKRLEWVATISSGGSYTYYPDTVKGRFTISRDNAKNTLHLQMSSLRSEDTALYYCARRGTNDAWFGYWGQGTLVTVSA
VL: DVVMTQTPLSLPVSLGDQASISCRFSQSIVHSNGNTYLEWYLQKPGQSPKLLIYKVSNRFFGVPDRFSGSGSGTDFTLKISRVEAEDLGVYFCFQGSHVPQYTFGGGTKLEIK
B14: B1.219 (antibody, human IgG1, V domains shown)
VH: EVQLVESGGALVKPGGSLKLSCAASGFTFSNYAMSWVRQTPEKRLEWVATISSVGSYTYYPDSVKGRFTISRDNAKTTLYLQMSGLRSEDTALYYCAKYSNYGRFASWGQGTLVTVST
VL: DVLMTQTPLSLPASLGDQASISCRSSQSIVHSSGNTYLEWYLQKPGQSPRLLIYKVSNRFFGVPDRISGSGSGTDFTLRISRVEAEDLGVYYCFQGSHVPYTFGGGTKLEIE
B15: B1.223 (antibody, human IgG1, V domains shown)
VH: EVKLVESGGALVKPGGSLKLSCAASGFTFSNYAMSWVRQTPEKRLEWVATISSGGSYTYYPDSVKGRFTISRDNAKTTLYLQMSGLRSEDTALYYCAKFSNYGRFASWGQGTLVTVSS
VL: DIQMIQSPLSLPVSLGDQASISCRSSQSIVHSSGNTYLEWYLQKPGQSPRLLIYKVSNRFFGVPDRISGSGSGTDFTLRISRVEAEDLGVYYCFQGSHVPYTFGGGTKLELK

Target: human MDR1 (multidrug resistance protein 1) (human, UniProt P08183 1-1280)
Test: cell-based or functional assay

Binder | IC50 of vincristine on N6/ADR cells with antibody [nM]
B1 | 2.93
B2 | 0.0929
B3 | 0.0622
B4 | 0.0192
B5 | 0.0062
B6 | 0.0167
B7 | 0.0386
B8 | 2.83
B9 | 0.0528
B10 | 0.0095
B11 | 0.0138
B12 | 0.0216
B13 | 0.0035
B14 | 0.0103
B15 | 0.0068
